Laboratory results published in PMC12719470 (2025).

Molecular target: T1, TNFR2-His protein (UniProt P20333 23-461)
T1 chain: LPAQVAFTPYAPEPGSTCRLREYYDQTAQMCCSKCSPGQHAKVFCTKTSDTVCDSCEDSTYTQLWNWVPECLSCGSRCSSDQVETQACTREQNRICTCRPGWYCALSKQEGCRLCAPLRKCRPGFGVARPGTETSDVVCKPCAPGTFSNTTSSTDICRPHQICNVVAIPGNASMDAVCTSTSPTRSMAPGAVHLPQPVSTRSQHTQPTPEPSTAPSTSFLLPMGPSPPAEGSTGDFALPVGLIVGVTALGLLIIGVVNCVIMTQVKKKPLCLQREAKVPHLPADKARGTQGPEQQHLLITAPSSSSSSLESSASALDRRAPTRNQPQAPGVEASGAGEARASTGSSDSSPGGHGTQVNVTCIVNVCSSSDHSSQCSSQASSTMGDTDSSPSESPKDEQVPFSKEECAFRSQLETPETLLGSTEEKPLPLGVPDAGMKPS
Assay: BLI

B1: Nanobody-161 IgG1 Y105G (Fc fusion)
chain: EVQLVESGGGLVQPGGSLRLSCAASGSIRFINDMGWYRQAPGKGLELVAAIGRGGGSTNYADSVKGRFTISRDNAKNTLYLQMNSLRAEDTAVYYCHAEISQLGGAFRDYWGQGTLVTVSS
With B1 as the binder, how does the Kd read?
Its Kd is 214 µM.
